Data published in the supplement of paper PMC10065799, “High-throughput profiling of sequence recognition by tyrosine kinases and SH2 domains using bacterial peptide display” (eLife, 2023).

Assays:
[1] = target: Grb2 SH2 (UniProt P62993); test: SH2 binding enrichment of the phosphorylated peptide, bacterial display (enrichment ratio); higher = better substrate or ligand; peptides without Tyr show the background
[2] = target: SHP2-C SH2; test: as above
[3] = target: c-Src SH2; test: as above
[4] = system: Fer (mouse); test: phosphorylation enrichment, bacterial display (enrichment ratio); higher = better substrate or ligand; peptides without Tyr show the background
[5] = target: EPHB1 (UniProt P54762); test: as above
[6] = target: FGFR3 (UniProt P22607); test: as above
[7] = target: Jak2 (UniProt O60674); test: as above
[8] = target: Fes (UniProt P07332); test: as above
[9] = system: c-Src; test: as above
[10] = system: c-Abl (mouse); test: as above
[11] = target: Fyn (UniProt P06241); test: as above
[12] = target: FGFR1 (UniProt P11362); test: as above
[13] = target: EPHB2 (UniProt P29323); test: as above
[14] = system: AncSZ; test: as above
[15] = target: MERTK (UniProt Q12866); test: as above
[16] = target: Hck (UniProt P08631); test: as above
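Wherever SH2 binding enrichment of the phosphorylated peptide, bacterial display is given: peptide library displayed on the E. coli surface as eCPX fusions, selected cells deep-sequenced, score is each peptide's frequency after selection divided by its frequency in the input.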
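Wherever phosphorylation enrichment, bacterial display is given: 11-residue human phosphosite peptides and single-mutation variants displayed on the E. coli surface, counted by deep sequencing, each peptide's frequency after selection divided by its frequency in the unselected input library; frequency after pTyr selection over input frequency; kinase dosed for 20-30% of maximal phosphorylation in three min.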

Sequence of FGFR3 (P22607 whole entry, looked up): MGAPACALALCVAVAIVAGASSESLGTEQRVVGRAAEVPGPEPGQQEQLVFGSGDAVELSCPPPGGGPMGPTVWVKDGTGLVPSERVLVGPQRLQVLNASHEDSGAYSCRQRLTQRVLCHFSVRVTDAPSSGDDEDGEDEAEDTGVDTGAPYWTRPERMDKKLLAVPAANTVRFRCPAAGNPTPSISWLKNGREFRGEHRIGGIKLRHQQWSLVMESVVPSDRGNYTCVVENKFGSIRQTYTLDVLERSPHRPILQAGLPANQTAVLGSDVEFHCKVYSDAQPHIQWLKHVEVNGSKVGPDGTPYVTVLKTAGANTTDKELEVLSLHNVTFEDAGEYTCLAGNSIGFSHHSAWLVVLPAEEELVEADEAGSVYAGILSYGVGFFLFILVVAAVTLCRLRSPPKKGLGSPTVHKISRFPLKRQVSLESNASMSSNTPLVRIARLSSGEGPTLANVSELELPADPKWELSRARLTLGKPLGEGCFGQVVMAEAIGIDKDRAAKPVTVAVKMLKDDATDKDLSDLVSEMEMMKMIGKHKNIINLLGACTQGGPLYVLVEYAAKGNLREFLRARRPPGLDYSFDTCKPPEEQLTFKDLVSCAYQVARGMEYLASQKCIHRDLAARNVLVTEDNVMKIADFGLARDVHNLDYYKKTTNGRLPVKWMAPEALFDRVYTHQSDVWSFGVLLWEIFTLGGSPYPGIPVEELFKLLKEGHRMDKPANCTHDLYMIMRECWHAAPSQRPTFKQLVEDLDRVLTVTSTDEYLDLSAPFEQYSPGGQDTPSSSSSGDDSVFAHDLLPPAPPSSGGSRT
Sequence of Fyn (P06241 whole entry, looked up): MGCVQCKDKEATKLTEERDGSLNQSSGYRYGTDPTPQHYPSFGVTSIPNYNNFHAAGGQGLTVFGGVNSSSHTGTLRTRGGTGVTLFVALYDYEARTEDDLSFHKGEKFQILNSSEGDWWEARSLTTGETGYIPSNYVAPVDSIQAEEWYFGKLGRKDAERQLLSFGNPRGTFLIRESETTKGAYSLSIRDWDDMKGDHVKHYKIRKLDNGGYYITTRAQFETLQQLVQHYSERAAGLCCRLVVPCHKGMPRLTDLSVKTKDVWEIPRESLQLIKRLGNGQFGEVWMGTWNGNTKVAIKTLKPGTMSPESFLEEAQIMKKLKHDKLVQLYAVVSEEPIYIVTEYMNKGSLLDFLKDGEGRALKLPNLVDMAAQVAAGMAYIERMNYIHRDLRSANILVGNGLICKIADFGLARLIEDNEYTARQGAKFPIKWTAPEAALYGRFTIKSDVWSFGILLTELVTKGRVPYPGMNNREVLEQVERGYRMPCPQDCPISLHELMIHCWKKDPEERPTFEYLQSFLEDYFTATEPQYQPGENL
Sequence of Grb2 SH2 (P62993 whole entry, looked up): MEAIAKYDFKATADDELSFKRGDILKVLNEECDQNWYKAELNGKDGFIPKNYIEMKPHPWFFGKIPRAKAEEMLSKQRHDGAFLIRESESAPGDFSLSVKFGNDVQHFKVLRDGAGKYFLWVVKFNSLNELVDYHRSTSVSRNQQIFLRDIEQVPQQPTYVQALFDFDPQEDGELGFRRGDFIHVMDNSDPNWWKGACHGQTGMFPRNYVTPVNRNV
Sequence of EPHB1 (P54762 whole entry, looked up): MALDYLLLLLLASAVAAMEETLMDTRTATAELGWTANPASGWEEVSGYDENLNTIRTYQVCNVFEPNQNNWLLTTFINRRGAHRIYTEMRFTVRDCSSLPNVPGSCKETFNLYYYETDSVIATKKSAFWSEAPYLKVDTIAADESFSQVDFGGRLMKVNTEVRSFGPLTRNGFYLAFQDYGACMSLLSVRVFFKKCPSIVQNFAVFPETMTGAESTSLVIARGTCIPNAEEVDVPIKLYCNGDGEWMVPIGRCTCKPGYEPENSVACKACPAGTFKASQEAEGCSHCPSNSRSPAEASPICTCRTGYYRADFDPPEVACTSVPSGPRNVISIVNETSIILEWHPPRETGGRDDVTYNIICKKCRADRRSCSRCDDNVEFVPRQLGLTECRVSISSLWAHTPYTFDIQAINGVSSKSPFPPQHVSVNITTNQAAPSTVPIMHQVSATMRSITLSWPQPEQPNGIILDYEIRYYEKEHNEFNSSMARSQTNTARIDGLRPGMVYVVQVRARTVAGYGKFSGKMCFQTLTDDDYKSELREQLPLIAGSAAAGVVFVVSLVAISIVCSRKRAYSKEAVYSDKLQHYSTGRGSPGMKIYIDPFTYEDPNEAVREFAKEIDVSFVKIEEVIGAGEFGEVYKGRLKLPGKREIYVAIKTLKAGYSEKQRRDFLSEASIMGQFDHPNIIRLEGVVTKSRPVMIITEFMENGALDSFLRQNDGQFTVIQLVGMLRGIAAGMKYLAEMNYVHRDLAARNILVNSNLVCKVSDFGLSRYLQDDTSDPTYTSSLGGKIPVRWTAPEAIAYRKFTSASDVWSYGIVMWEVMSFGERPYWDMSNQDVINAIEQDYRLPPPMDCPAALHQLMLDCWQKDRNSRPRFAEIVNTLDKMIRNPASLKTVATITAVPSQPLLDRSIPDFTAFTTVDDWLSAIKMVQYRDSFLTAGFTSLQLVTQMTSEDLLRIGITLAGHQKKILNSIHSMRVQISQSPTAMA
Sequence of Jak2 (O60674 whole entry, looked up): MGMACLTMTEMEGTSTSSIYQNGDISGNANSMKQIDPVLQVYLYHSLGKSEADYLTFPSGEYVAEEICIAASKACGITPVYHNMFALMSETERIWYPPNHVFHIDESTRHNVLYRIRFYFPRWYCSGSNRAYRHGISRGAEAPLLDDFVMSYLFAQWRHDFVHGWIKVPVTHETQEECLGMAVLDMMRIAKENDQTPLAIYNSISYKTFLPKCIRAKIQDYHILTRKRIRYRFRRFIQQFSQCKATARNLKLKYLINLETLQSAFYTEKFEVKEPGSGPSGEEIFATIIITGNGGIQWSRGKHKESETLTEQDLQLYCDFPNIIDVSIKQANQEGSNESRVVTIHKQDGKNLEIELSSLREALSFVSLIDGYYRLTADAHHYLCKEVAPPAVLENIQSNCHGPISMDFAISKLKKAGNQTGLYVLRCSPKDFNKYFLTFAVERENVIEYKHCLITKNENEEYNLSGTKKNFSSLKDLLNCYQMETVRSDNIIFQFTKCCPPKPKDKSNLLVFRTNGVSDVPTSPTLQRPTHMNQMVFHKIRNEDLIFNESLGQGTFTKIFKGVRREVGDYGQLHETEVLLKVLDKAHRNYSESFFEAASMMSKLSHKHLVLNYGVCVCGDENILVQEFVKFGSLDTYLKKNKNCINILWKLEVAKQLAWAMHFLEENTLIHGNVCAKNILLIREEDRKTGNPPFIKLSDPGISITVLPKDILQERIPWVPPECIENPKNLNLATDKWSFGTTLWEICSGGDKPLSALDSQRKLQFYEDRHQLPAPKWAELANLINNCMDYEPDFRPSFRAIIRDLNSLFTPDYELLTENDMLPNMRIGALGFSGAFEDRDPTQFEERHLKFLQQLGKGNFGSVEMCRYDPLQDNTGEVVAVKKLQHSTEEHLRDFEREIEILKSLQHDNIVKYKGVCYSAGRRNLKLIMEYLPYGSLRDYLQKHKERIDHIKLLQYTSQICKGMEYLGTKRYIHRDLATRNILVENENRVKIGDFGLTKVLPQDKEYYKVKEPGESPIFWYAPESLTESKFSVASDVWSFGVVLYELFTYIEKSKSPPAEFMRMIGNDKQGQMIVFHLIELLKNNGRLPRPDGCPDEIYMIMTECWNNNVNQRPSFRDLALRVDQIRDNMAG
Sequence of Hck (P08631 whole entry, looked up, the tested form may be a part): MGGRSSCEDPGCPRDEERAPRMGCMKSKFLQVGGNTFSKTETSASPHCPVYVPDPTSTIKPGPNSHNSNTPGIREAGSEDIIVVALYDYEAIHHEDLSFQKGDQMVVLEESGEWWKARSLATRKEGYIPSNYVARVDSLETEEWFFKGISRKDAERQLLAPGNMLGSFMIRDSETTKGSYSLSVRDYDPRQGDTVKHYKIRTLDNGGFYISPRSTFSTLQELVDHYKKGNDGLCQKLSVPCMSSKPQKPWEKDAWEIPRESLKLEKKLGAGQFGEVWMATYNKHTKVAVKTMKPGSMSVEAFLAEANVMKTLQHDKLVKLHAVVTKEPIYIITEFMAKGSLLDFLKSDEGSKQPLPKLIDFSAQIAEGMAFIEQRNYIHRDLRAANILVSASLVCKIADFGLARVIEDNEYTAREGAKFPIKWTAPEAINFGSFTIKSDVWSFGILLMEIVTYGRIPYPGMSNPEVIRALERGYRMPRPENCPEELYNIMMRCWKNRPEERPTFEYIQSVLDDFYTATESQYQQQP
Sequence of FGFR1 (P11362 whole entry, looked up): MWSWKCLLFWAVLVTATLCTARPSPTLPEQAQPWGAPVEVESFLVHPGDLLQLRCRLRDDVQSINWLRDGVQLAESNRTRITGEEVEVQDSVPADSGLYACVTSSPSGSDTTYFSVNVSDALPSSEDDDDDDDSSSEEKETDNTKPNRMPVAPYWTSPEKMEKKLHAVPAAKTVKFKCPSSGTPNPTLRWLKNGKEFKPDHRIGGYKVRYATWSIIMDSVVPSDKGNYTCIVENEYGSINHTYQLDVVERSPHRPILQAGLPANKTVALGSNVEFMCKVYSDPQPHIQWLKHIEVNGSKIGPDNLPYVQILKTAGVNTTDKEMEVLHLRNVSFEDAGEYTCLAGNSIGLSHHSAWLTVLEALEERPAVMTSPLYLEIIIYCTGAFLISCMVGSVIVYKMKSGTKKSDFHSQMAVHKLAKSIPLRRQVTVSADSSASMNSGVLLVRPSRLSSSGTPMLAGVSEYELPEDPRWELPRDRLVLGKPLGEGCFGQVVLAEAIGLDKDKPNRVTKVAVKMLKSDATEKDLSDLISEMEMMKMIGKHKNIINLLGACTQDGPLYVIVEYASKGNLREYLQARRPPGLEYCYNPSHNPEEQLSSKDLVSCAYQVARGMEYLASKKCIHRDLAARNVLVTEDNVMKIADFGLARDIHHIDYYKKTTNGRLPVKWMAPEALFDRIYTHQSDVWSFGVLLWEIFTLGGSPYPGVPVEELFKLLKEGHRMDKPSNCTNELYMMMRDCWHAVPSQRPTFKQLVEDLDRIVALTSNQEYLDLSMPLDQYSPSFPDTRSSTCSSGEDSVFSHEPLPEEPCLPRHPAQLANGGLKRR

Sequence	SH2 binding enrichment [1]	SH2 binding enrichment [2]	SH2 binding enrichment [3]	phosphorylation enrichment [4]	phosphorylation enrichment [5]	phosphorylation enrichment [6]	phosphorylation enrichment [7]	phosphorylation enrichment [8]	phosphorylation enrichment [9]	phosphorylation enrichment [10]	phosphorylation enrichment [11]	phosphorylation enrichment [12]	phosphorylation enrichment [13]	phosphorylation enrichment [14]	phosphorylation enrichment [15]	phosphorylation enrichment [16]
SVTCTSSPALN [TP53_Y126_Y126S]	0.767	0.603	0.482	0.538	0.626	0.863	1.18	1.34	0.47	0.856	0.562	0.476	0.675	1.3	0.436	0.526
DDSSAYCSVDE [BCKDHA_Y345_R346C]	1	0.727	1.21	0.521	0.621	0.692	0.978	1	0.535	0.712	0.55	0.544	0.505	1.32	0.505	0.58
EYGRRYGFSRQ [CCDC93_Y209]	0.676	0.572	0.474	0.309	0.41	0.588	0.475	0.646	0.419	0.525	0.424	0.389	0.393	0.577	0.534	0.438
PDMHSYVVRYN [GRIN2D_Y732_M733V]	0.812	0.825	0.544	0.434	0.787	0.844	1.04	1.13	0.603	0.694	0.554	0.56	0.723	1.13	0.413	0.721
PQAVTYATVKH [LILRB4_Y360_K362T]	0.851	85.4	3.11	0.624	0.735	0.607	0.882	0.776	2.83	0.856	1.72	0.423	0.615	0.655	0.543	2.92
SNKLFYQLEQE [PDPR_Y110_YF]	0.869	0.649	0.651	0.583	0.628	0.692	1.3	1.39	1.91	0.791	1.45	0.588	0.738	1.25	0.508	0.641
DNEAIYDICRC [TUBA4A_Y210_R215C]	0.932	0.662	0.524	7.98	1.82	0.761	0.923	1.28	6.51	10.3	9.3	0.633	4.87	3.65	5.93	7.18
DSSIRYLQEIF [FGG_Y135_YF]	0.856	0.693	0.473	0.417	0.576	0.604	0.755	0.924	0.497	0.545	0.559	0.632	0.5	0.868	0.542	0.527
KGFCGYSFDDI [TMEM230_Y110_R108C_YF]	0.71	0.516	0.983	0.504	0.613	0.863	1.28	1.35	1.16	1.07	0.526	0.595	0.568	1.18	0.471	0.456
